Experimental data from US20230241243A1, “CARRIER PARTICLE-DRUG CONJUGATES, SELF-IMMOLATIVE LINKERS, AND USES THEREOF” (priority 2020, published 2023).

Test: Drug-release assay of nanoparticle-conjugated linker-payloads under cleavage conditions (Cat-B, redox-responsive or pH-sensitive cleaving study), RP-HPLC
Assay type: in vitro ADME
Conditions: linker-payload conjugated to DBCO-functionalized silica nanoparticle, 37° C., 24 hours
Procedure: To assess the drug releasing profile of exemplary linker-drug conjugates, the linker-drug conjugates were each conjugated to a DBCO-functionalized ultrasmall silica nanoparticle via a click chemistry reaction between the azide groups on the linker-drug conjugate precursors and the dibenzocyclooctyne (DBCO) groups of the nanoparticles. The resulting drug-nanoparticle-conjugates were then incubated under the desired releasing conditions for release kinetics tests.
The amount of released drugs vs non-released drugs was measured using reverse phase HPLC by analyzing the area under curve (AUC) (FIG. 10A and FIG. 10B).
General Method: A Waters Xbridge Peptide BEH C18 column with 4.6 mm×50 mm dimensions, a particle size of 5 μm, and a pore size of 300 A was used (part number 186003622). Acetonitrile (VWR HiPerSolv Chromanorm, UHPLC Grade) was used as received without further preparation, […] trifluoroacetic acid in deionized water was prepared by adding 1 mL of trifluoroacetic acid (HPLC grade, Millipore-Sigma) into 999 mL 18.2 MΩ·cm deionized water that was generated using an IQ7000 Millipore deionized water system and passed through a 0.2 μm filter before use. The seal wash used for the system was composed of 90% 18.2 MΩ·cm deionized water and 10% methanol (HPLC grade, VWR). The injection needle was washed using a mixture of 25 vol % 18.2 MΩ·cm deionized water, 25 vol % acetonitrile, 25 vol % methanol, and 25 vol % 2-propanol. Samples were prepared in a concentration range of 0.25 to 2 μM and the injection volume ranges from 60 μL to 10 μL, respectively. Higher sample concentration can be used if detector signal is low. Vials used for all injections are fresh Waters Total Recovery vials with screw caps that have pre-slit PTFE septa (part number 186000385C).
Method for Protease-cleavable and Redox-responsive Linkers: Before any sample injections were started, the PDA lamp was turned on and allowed to warm up for at least 30 minutes. The system and column were equilibrated with 95% 0.01% TFA in deionized water, 5% acetonitrile for at least 10 minutes at a flow rate of 1.0 mL/min after the PDA lamp had warmed up. Two blank injections, with injection volumes of 10 μL containing only 18.2 MΩ·cm deionized water, were performed before the injection of any samples for analysis. The gradient used to elute protease-cleavable and redox-sensitive linkers conjugated to hybrid silica nanoparticles, and their components began at 95% 0.01% TFA in deionized water and 5% acetonitrile and linearly changed to 15% 0.01% TFA in deionized water, 85% acetonitrile over 8 minutes. Acetonitrile composition was increased to 95% over an additional minute and held at 95% for an additional 2 minutes to ensure that any strongly retained compounds are eluted. The composition of the solvent was then changed back to the starting composition of the gradient over an additional minute and allowed to equilibrate for 3 minutes before another injection began. Between sample injections a blank injection was run to ensure that no carryover occurred.
Method for pH-sensitive Linkers: Before any sample injections were started, the PDA lamp was turned on and allowed to warm up for at least 30 minutes. A gradient of pure deionized water and acetonitrile was used, all other consumables including column and vials were the same as for the method to purify Cat-B sensitive and redox-responsive linkers elaborated on above. Briefly the gradient composition began at 95% deionized water and 5% acetonitrile at a flow rate of 1.0 mL/min (not changed throughout the method). The composition was changed from this starting composition to 15% deionized water and 85% acetonitrile over a 12-minute period, during which the retained drug-linkers, released drug, free drug linker, and any other impurities eluted. At the 12-minute mark the composition was rapidly changed to 5% deionized water and 95% acetonitrile over the course of one minute. […]

| SMILES | % of Payload Release in 24 Hours Under Cleavage Conditions |
| --- | --- |
| CC[C@@]1(O)C(=O)OCc2c1cc1n(c2=O)Cc2c-1nc1cc(F)c(C)c3c1c2[C@@H](NC(=O)OCc1ccc(NC(=O)[C@H](CCCCN)NC(=O)[C@H](Cc2ccccc2)NC(=O)CCOCCOCCOCCOCCOCCOCCOCCOCCOCCOCCN=[N+]=[N-])cc1)CC3 [Example 26, 4-((35S,38S)-38-(4-aminobutyl)-1-azido-35-benzyl-33,36-dioxo-3,6,9,12,15,18,21,24,27,30-decaoxa-34,37-diazanonatriacontan-39-amido)benzyl ((1S,9S)-9-ethyl-5-fluoro-9-hydroxy-4-methyl-10,13-dioxo-2,3,9,10,13,15-hexahydro-1H,12H-benzo[de]pyrano[3′,4′:6,7]indolizino[1,2-b]quinolin-1-yl)carbamate] | + (‘+’ indicates 5-25% release) |
| CC[C@@]1(O)C(=O)OCc2c1cc1n(c2=O)Cc2c-1nc1cc(F)c(C)c3c1c2[C@@H](NCc1ccc(NC(=O)[C@H](CCCNC(N)=O)NC(=O)[C@@H](NC(=O)CCOCCOCCOCCOCCOCCOCCOCCOCCOCCN=[N+]=[N-])C(C)C)cn1)CC3 [Example 46, 1-azido-N-((S)-1-(((S)-1-((6-((((1S,9S)-9-ethyl-5-fluoro-9-hydroxy-4-methyl-10,13-dioxo-2,3,9,10,13,15-hexahydro-1H,12H-benzo[de]pyrano[3′,4′:6,7]indolizino[1,2-b]quinolin-1-yl)amino)methyl)pyridin-3-yl)amino)-1-oxo-5-ureidopentan-2-yl)amino)-3-methyl-1-oxobutan-2-yl)-3,6,9,12,15,18,21,24,27-nonaoxatriacontan-30-amide] | + (‘+’ indicates 5-25% release) |
| CCc1c2c(nc3ccc(OCc4c(F)cc(NC(=O)[C@H](CCCNC(N)=O)NC(=O)[C@@H](NC(=O)CCOCCOCCOCCOCCOCCOCCOCCOCCOCCOCCOCCN=[N+]=[N-])C(C)C)cc4F)cc13)-c1cc3c(c(=O)n1C2)COC(=O)[C@]3(O)CC [Example 22, 1-azido-N-((S)-1-(((S)-1-((4-((((S)-4,11-diethyl-4-hydroxy-3,14-dioxo-3,4,12,14-tetrahydro-1H-pyrano[3′,4′:6,7]indolizino[1,2-b]quinolin-9-yl)oxy)methyl)-3,5-difluorophenyl)amino)-1-oxo-5-ureidopentan-2-yl)amino)-3-methyl-1-oxobutan-2-yl)-3,6,9,12,15,18,21,24,27,30,33-undecaoxahexatriacontan-36-amide] | + (‘+’ indicates 5-25% release) |
| CC[C@@]1(O)C(=O)OCc2c1cc1n(c2=O)Cc2c-1nc1cc(F)c(C)c3c1c2[C@@H](NC(=O)OCc1ccc(NC(=O)[C@H](CCCNC(N)=O)NC(=O)[C@@H](NC(=O)CCCCCCN=[N+]=[N-])C(C)C)cc1)CC3 [Example 30, 4-((S)-2-((S)-2-(7-Azidoheptanamido)-3-methylbutanamido)-5-ureidopentanamido)benzyl ((1S,9S)-9-ethyl-5-fluoro-9-hydroxy-4-methyl-10,13-dioxo-2,3,9,10,13,15-hexahydro-1H,12H-benzo[de]pyrano[3′,4′:6,7]indolizino[1,2-b]quinolin-1-yl)carbamate] | ++ (‘++’ indicates 26-50% release) |
| CCc1c2c(nc3ccc(OC(C(=O)OC)c4ccc(NC(=O)[C@H](CCCNC(N)=O)NC(=O)[C@@H](NC(=O)CCOCCOCCOCCOCCOCCOCCOCCOCCOCCOCCOCCN=[N+]=[N-])C(C)C)cc4)cc13)-c1cc3c(c(=O)n1C2)COC(=O)[C@]3(O)CC (stereo partly drawn) [Example 14-R isomer, Methyl 2-(4-((38S,41S)-1-azido-38-isopropyl-36,39-dioxo-41-(3-ureidopropyl)-3,6,9,12,15,18,21,24,27,30,33-undecaoxa-37,40-diazadotetracontan-42-amido)phenyl)-2-(((S)-4,11-diethyl-4-hydroxy-3,14-dioxo-3,4,12,14-tetrahydro-1H-pyrano[3′,4′:6,7]indolizino[1,2-b]quinolin-9-yl)oxy)acetate] | + (‘+’ indicates 5-25% release) |
| CCc1c2c(nc3ccc(OCc4c(F)cc(NC(=O)[C@H](CCCNC(N)=O)NC(=O)[C@@H](NC(=O)CCOCCOCCOCCOCCOCCOCCOCCOCCOCCN=[N+]=[N-])C(C)C)cc4F)cc13)-c1cc3c(c(=O)n1C2)COC(=O)[C@]3(O)CC [Example 21, 1-Azido-N-((S)-1-(((S)-1-((4-((((S)-4,11-diethyl-4-hydroxy-3,14-dioxo-3,4,12,14-tetrahydro-1H-pyrano[3′,4′:6,7]indolizino[1,2-b]quinolin-9-yl)oxy)methyl)-3,5-difluorophenyl)amino)-1-oxo-5-ureidopentan-2-yl)amino)-3-methyl-1-oxobutan-2-yl)-3,6,9,12,15,18,21,24,27-nonaoxatriacontan-30-amide] | + (‘+’ indicates 5-25% release) |
| CCc1c2c(nc3ccc(OCCCNC(=O)OCc4ccc(NC(=O)[C@H](CCCCN)NC(=O)[C@@H](NC(=O)CCOCCOCCOCCOCCOCCOCCOCCOCCOCCN=[N+]=[N-])C(C)C)cc4)cc13)-c1cc3c(c(=O)n1C2)COC(=O)[C@]3(O)CC [Example 31, 4-((32S,35S)-35-(4-aminobutyl)-1-azido-32-isopropyl-30,33-dioxo-3,6,9,12,15,18,21,24,27-nonaoxa-31,34-diazahexatriacontan-36-amido)benzyl (3-(((S)-4,11-diethyl-4-hydroxy-3,14-dioxo-3,4,12,14-tetrahydro-1H-pyrano[3′,4′:6,7]indolizino[1,2-b]quinolin-9-yl)oxy)propyl)carbamate] | + (‘+’ indicates 5-25% release) |
| CC[C@@]1(O)C(=O)OCc2c1cc1n(c2=O)Cc2c-1nc1cc(F)c(C)c3c1c2[C@@H](NCc1c(F)cc(NC(=O)[C@H](CCCNC(N)=O)NC(=O)[C@@H](NC(=O)CCOCCOCCOCCOCCOCCOCCOCCOCCOCCOCCOCCN=[N+]=[N-])C(C)C)cc1F)CC3 [Example 23, 1-azido-N-((S)-1-(((S)-1-((4-((((1S,9S)-9-ethyl-5-fluoro-9-hydroxy-4-methyl-10,13-dioxo-2,3,9,10,13,15-hexahydro-1H,12H-benzo[de]pyrano[3′,4′:6,7]indolizino[1,2-b]quinolin-1-yl)amino)methyl)-3,5-difluorophenyl)amino)-1-oxo-5-ureidopentan-2-yl)amino)-3-methyl-1-oxobutan-2-yl)-3,6,9,12,15,18,21,24,27,30,33-undecaoxahexatriacontan-36-amid] | + (‘+’ indicates 5-25% release) |
| CC[C@@]1(O)C(=O)OCc2c1cc1n(c2=O)Cc2c-1nc1cc(F)c(C)c3c1c2[C@@H](NC(=O)C(O)c1ccc(NC(=O)[C@H](CCCCN)NC(=O)[C@H](Cc2ccccc2)NC(=O)CCOCCOCCOCCOCCOCCOCCN=[N+]=[N-])cc1)CC3 (single isomer, unassigned) [Example 29-Peak 2] | ++ (‘++’ indicates 26-50% release) |

Same assay, conditions: linker-payload conjugated to nanoparticle, 37° C., @ 3 Hrs

| SMILES | % of Payload Release Under Cleavage Conditions |
| --- | --- |
| CCc1c2c(nc3ccc(OCC(=O)N/N=C(/C)c4ccc(OCCOCCOCCOCCOCCOCCN=[N+]=[N-])cc4)cc13)-c1cc3c(c(=O)n1C2)COC(=O)[C@]3(O)CC [Example 64, (S,Z)-N′-(1-(4-((17-azido-3,6,9,12,15-pentaoxaheptadecyl)oxy)phenyl)ethylidene)-2-((4,11-diethyl-4-hydroxy-3,14-dioxo-3,4,12,14-tetrahydro-1H-pyrano[3′,4′:6,7]indolizino[1,2-b]quinolin-9-yl)oxy)acetohydrazide] | +++ @ 3 Hrs (‘+++’ indicates 51-75% release) |
